In EP4574844A1 (Numab Therapeutics AG, dated 2025):
Values belong to the binder of their own block, whether it stands above or below them.

Columns and labels:
[1] = biological target: T1, recombinant human CD47 (human, UniProt Q08722 19-139, limits assumed); test: SPR, CD47 immobilised, scFv as analyte, 1:1 Langmuir
[2] = biological target: T2, human LILRB2 on the cell surface (human, UniProt Q8N423 22-597); test: cell-based or functional assay
[3] = biological target: T3, recombinant human LILRB2 (human, UniProt Q8N423 22-460, limits assumed); test: SPR, antibody captured by anti-framework IgG, antigen as analyte (without avidity)
T3 construct: also called ILT4
T3 sequence (Q8N423 22-460 limits assumed): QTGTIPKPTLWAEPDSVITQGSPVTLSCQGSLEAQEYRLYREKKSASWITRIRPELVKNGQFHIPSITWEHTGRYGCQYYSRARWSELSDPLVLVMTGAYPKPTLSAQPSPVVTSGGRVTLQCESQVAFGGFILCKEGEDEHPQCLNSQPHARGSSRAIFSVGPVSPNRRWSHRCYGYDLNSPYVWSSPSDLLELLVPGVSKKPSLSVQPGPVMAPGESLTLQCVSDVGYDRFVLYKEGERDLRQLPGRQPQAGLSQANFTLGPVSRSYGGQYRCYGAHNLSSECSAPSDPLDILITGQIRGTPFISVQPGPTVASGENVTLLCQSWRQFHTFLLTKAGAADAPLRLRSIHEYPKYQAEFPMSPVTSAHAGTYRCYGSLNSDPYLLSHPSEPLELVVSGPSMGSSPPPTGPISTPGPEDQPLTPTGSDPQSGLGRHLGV

[4] = biological target: T4, recombinant human PDL1 (human, UniProt Q9NZQ7 19-238, limits assumed); test: SPR, antigen immobilised, antibody as analyte
T4 construct: SPR antigen; also called CD274; B7-H1

[5] = biological target: T1, recombinant human CD47; test: SPR, antigen immobilised, antibody as analyte
[6] = biological target: T2, human LILRB2 on the cell surface; test: cell-based or functional assay; remark: listed apart in the source
[7] = biological target: T5, human CD47 on the cell surface (human, UniProt Q08722 19-323); test: cell-based or functional assay
[8] = biological target: T6, human PD-L1 on the cell surface (human, UniProt Q9NZQ7 19-290); test: cell-based or functional assay
[9] = biological target: T7, recombinant cynomolgus PDL1 (cynomolgus monkey, UniProt G7PSE7 19-238); test: SPR
T7 construct: also called cynom; PDL1
T7 sequence (G7PSE7 entry or part of it): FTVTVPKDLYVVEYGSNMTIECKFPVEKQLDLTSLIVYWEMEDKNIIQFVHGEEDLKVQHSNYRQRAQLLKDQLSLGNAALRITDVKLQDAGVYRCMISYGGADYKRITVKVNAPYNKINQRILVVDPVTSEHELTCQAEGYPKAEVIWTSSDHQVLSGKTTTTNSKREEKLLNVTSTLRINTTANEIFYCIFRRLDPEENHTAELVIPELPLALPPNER

[10] = biological target: T6, human PD-L1 on the cell surface; test: cell-based or functional assay; remark: listed apart in the source
[11] = biological target: T4, recombinant human PDL1; test: SPR
[12] = biological target: T5, human CD47 on the cell surface; test: cell-based or functional assay; remark: listed apart in the source

T2 sequence (Q8N423 22-597): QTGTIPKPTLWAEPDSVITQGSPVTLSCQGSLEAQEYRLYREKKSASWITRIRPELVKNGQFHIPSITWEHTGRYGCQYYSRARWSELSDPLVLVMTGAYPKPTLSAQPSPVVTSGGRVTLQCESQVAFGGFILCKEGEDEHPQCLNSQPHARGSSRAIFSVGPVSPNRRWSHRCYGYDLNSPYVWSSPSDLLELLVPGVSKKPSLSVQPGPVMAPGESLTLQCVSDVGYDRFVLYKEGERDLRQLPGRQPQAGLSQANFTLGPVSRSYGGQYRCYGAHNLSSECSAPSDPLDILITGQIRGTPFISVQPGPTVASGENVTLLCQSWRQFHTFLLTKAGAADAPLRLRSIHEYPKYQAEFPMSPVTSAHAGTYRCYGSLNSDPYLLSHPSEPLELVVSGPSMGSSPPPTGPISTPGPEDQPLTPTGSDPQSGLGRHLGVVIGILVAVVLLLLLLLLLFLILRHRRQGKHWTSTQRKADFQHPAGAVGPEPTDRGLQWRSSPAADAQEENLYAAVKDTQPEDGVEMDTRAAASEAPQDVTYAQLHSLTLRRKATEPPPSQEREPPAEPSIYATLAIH

Kd [4]: 0.0105 nM
koff [4]: 2.13e-05 s⁻¹
kon [4]: 2.02e+06 M⁻¹ s⁻¹
Kd [5]: 56.6 nM
koff [5]: 0.0249 s⁻¹
kon [5]: 439000 M⁻¹ s⁻¹
CD47 driven EC50 [nM], phagocytosis of A375 cells [12]: 76.9 nM
CD47 driven EC50 [nM], phagocytosis of H292 cells [7]: 54.3 nM
PD-L1 driven EC50 [nM], phagocytosis of H292 cells [8]: 0.13 nM
B4: PRO5056 (antibody, human IgG1, kappa)
chain: DVQMTQSPSSLSASVGDRVTITCQASQSISSWVSWYQQKPGKPPKLLIYRGGYLESGVPSRFSASGSGTDFTLTISSLQPEDFATYYCQSTDSSTYGGAFGCGTKVTVLGGGGGSGGGGSGGGGSGGGGSQQVVESGGGLVQPGGSLRLSCAVSGIDLNSYAMTWVRQAPGKCLEWIGYIGSASSTYYASWASGRFTISKDNSKNTVYLQMNSLRAEDSAVYFCARGSTYINIWGQGTLVKVSSEPKSSDKTHTCPPCPAPELLGGPSVFLFPPKPKDTLMISRTPEVTCVVVDVSHEDPEVKFNWYVDGVEVHNAKTKPREEQYNSTYRVVSVLTVLHQDWLNGKEYKCKVSNKALPAPIEKTISKAKGQPREPQVYTLPPCREEMTKNQVSLSCAVKGFYPSDIAVEWESNGQPENNYKTTPPVLDSDGSFFLVSKLTVDKSRWQQGNVFSCSVMHEALHNHYTQKSLSLSPGKGGGGSGGGGSDIQMTQSPSSLSASVGDRVTITCQSSESVYSNNQLSWYQQKPGQPPKLLIYDASDLASGVPSRFSGSGSGTDFTLTISSLQPEDFATYYCAGGFSSSSDTAFGCGTKLTVLGGGGGSGGGGSGGGGSGGGGSEVQLVESGGGLVQPGGSLRLSCAASGFSLSSNAMGWVRQAPGKCLEYIGIISVGGFTYYASWAKGRFTISRDNSKNTVYLQMNSLRAEDSATYFCARDRHGGDSSGAFYLWGQGTLVKVSS
heavy: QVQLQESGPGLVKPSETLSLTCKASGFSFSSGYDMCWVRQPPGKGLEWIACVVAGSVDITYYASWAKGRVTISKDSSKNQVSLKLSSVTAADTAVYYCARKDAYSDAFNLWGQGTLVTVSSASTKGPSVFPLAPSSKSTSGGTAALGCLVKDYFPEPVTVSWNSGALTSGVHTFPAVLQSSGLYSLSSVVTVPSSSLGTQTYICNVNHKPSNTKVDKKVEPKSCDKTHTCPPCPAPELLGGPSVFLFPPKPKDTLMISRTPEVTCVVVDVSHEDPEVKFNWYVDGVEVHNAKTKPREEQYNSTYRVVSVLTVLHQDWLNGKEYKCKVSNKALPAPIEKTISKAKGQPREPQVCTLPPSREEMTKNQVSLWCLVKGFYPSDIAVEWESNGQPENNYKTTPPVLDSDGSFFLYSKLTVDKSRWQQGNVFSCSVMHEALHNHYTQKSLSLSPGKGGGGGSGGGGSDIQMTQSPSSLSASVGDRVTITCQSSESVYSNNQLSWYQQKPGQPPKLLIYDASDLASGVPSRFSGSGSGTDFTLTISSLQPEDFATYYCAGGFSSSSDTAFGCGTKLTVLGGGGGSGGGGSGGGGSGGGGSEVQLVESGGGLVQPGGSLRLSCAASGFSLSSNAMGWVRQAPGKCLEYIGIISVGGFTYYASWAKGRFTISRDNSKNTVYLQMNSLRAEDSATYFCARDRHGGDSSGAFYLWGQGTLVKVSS
light: DIQMTQSPSSLSASVGDRVTITCQASQSINDYLAWYQQKPGKAPKLLIYKGGTLASGVPSRFSGSGSGTDFTLTISSLQPEDFATYYCQQGYIITDIDNVFGQGTKVEIKRTVAAPSVFIFPPSDEQLKSGTASVVCLLNNFYPREAKVQWKVDNALQSGNSQESVTEQDSKDSTYSLSSTLTLSKADYEKHKVYACEVTHQGLSSPVTKSFNRGEC
notes: anti-PDL1 x CD47 x (hSA dummy domain); also called PRO5055 with dummy domain for LILRB2-BD

CD47 driven EC50 [nM], phagocytosis of H292 cells [7]: 13.5 nM
PD-L1 driven EC50 [nM], phagocytosis of H292 cells [8]: 0.08 nM
B6: PRO4688 (antibody, human IgG1, kappa)
chain: B4 chain
heavy: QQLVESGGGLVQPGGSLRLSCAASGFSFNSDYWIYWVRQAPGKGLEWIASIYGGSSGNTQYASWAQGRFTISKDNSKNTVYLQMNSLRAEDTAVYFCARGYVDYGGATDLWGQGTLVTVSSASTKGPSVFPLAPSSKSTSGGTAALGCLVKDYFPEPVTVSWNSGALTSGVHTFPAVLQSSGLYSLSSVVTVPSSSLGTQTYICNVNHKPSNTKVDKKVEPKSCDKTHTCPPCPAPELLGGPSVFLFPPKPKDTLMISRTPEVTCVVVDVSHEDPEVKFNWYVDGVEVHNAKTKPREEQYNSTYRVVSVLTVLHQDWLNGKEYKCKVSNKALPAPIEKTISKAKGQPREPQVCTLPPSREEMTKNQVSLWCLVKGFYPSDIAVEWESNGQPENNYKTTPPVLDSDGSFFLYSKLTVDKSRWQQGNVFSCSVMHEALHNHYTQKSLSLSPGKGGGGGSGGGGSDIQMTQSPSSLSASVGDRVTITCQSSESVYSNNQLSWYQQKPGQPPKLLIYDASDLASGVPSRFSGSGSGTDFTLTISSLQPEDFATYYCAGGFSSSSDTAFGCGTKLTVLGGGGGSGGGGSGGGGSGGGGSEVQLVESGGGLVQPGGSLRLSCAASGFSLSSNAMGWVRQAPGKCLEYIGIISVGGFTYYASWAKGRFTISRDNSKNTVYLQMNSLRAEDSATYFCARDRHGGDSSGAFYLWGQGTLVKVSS
light: DIQMTQSPSSLSASVGDRVTITCQASQSIGTYLAWYQQKPGKPPKLLIYRGGILASGVPSRFSGSGSGTDFTLTISSLQPEDFATYYCQSNFYSDSTTIGPNAFGQGTKVEIKRTVAAPSVFIFPPSDEQLKSGTASVVCLLNNFYPREAKVQWKVDNALQSGNSQESVTEQDSKDSTYSLSSTLTLSKADYEKHKVYACEVTHQGLSSPVTKSFNRGEC

The remaining lines, values behind:

B1: PRO3703 (scFv)
scFv: DVQMTQSPSSLSASVGDRVTITCQASQSISSWVSWYQQKPGKPPKLLIYRGGYLESGVPSRFSASGSGTDFTLTISSLQPEDFATYYCQSTDSSTYGGAFGCGTKVTVLGGGGGSGGGGSGGGGSGGGGSQQVVESGGGLVQPGGSLRLSCAVSGIDLNSYAMTWVRQAPGKCLEWIGYIGSASSTYYASWASGRFTISKDNSKNTVYLQMNSLRAEDSAVYFCARGSTYINIWGQGTLVKVSS
notes: anti-CD47 scFv; also called 70-26-B04-sc03
Kd [1]: 11.9 nM
koff [1]: 0.029 s⁻¹
kon [1]: 2.44e+06 M⁻¹ s⁻¹

B2: PRO4687 (antibody, human IgG1, kappa)
chain: DVQMTQSPSSLSASVGDRVTITCQASQSISSWVSWYQQKPGKPPKLLIYRGGYLESGVPSRFSASGSGTDFTLTISSLQPEDFATYYCQSTDSSTYGGAFGCGTKVTVLGGGGGSGGGGSGGGGSGGGGSQQVVESGGGLVQPGGSLRLSCAVSGIDLNSYAMTWVRQAPGKCLEWIGYIGSASSTYYASWASGRFTISKDNSKNTVYLQMNSLRAEDSAVYFCARGSTYINIWGQGTLVKVSSEPKSSDKTHTCPPCPAPELLGGPSVFLFPPKPKDTLMISRTPEVTCVVVDVSHEDPEVKFNWYVDGVEVHNAKTKPREEQYNSTYRVVSVLTVLHQDWLNGKEYKCKVSNKALPAPIEKTISKAKGQPREPQVYTLPPCREEMTKNQVSLSCAVKGFYPSDIAVEWESNGQPENNYKTTPPVLDSDGSFFLVSKLTVDKSRWQQGNVFSCSVMHEALHNHYTQKSLSLSPGKGGGGSGGGGSDVQMTQSPSSLSASVGDRVTITCQASQSIGSNLAWYQQKPGKPPKLLIYKGGTLESGVPSRFSGSGSGTDFTLTISSLQPEDFATYYCQSTAGSSRSGNYGYVFGCGTKVTVLGGGGGSGGGGSGGGGSGGGGSQQLVESGGGLVQPGGSLRLSCAASGFSFTNNYYMCWVRQAPGKCLEWIACMLVGAWGNTYYASWANGRFTISKDNSKNTVYLQMNSLRAEDSAVYFCARARDYTWTLGGDPETSGFNLWGQGTLVKVSS
heavy: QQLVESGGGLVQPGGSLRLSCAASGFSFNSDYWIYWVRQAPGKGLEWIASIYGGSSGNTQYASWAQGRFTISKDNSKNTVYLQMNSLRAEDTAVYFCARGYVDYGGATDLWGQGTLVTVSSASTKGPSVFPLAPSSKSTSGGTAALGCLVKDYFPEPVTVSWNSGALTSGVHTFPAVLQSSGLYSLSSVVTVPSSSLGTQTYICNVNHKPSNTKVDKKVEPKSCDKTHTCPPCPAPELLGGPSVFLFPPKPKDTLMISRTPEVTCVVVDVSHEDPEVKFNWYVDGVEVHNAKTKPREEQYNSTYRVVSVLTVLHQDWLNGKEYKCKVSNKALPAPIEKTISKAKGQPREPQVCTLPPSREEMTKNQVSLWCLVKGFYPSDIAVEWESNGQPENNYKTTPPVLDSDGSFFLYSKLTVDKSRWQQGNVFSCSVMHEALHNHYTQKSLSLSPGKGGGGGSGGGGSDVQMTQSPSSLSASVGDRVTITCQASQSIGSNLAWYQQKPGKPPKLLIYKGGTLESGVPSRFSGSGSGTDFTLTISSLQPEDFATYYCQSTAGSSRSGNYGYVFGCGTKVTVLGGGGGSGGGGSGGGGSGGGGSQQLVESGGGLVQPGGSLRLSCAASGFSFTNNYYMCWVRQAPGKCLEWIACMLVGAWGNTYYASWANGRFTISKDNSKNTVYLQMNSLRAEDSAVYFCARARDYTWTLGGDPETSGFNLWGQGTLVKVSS
light: B6 light
notes: trispecific anti-PDL1 x CD47 x LILRB2; PDL1-BD (37-20-B03-sc18) as Fab
IL-1β EC50 [nM], LPS-driven cytokine secretion [2]: 0.205 nM
IL-6 EC50 [nM], LPS-driven cytokine secretion [2]: 0.097 nM
TNF-α EC50 [nM], LPS-driven cytokine secretion [2]: 0.175 nM
Kd [3]: 0.36 nM
koff [3]: 9.3e-05 s⁻¹
kon [3]: 260000 M⁻¹ s⁻¹
Kd [4]: 0.0885 nM
koff [4]: 0.000116 s⁻¹
kon [4]: 1.31e+06 M⁻¹ s⁻¹
Kd [5]: 25.2 nM
koff [5]: 0.0204 s⁻¹
kon [5]: 811000 M⁻¹ s⁻¹
CD86 EC50 [nM], re-polarization of M2 macrophages [6]: 0.078 nM
CD163 EC50 [nM], re-polarization of M2 macrophages [6]: 0.07 nM
CD206 EC50 [nM], re-polarization of M2 macrophages [6]: 0.124 nM
CD47 driven EC50 [nM], phagocytosis of H292 cells [7]: 8.62 nM
PD-L1 driven EC50 [nM], phagocytosis of H292 cells [8]: 0.043 nM

B3: PRO3891 (scFv)
scFv: DIQMTQSPSSLSASVGDRVTITCQASQSINDYLAWYQQKPGKAPKLLIYKGGTLASGVPSRFSGSGSGTDFTLTISSLQPEDFATYYCQQGYIITDIDNVFGTGTKVTVLGGGGGSGGGGSGGGGSGGGGSQVQLQESGPGLVKPSETLSLTCKASGFSFSSGYDMCWVRQPPGKGLEWIACVVAGSVDITYYASWAKGRVTISKDSSKNQVSLKLSSVTAADSAVYYCARKDAYSDAFNLWGQGTLVKVSS
notes: anti-PDL1 scFv
Kd [9]: 0.0034 nM
koff [9]: 2.9e-05 s⁻¹
kon [9]: 5.9e+06 M⁻¹ s⁻¹
PDL1/PD-1 EC50 [nM], NFAT reporter gene assay [10]: 1.36 nM
PDL1/PD-1 Max. inhibition (rel. to avelumab) [%] [10]: 94.6%
Kd [11]: 0.0041 nM
koff [11]: 3.9e-05 s⁻¹
kon [11]: 6e+06 M⁻¹ s⁻¹

B5: PRO4673 (antibody)
chain 1: B4 chain
chain 2: not shown
CD47 driven EC50 [nM], phagocytosis of H292 cells [7]: 11 nM
PD-L1 driven EC50 [nM], phagocytosis of H292 cells [8]: 0.18 nM

B7: PRO2230 (scFv)
scFv: DIQMTQSPASLSASVGDRVTITCQASQSIGTYLAWYQQKPGKPPKLLIYRAFILASGVPSRFSGSGSGTDFTLTISSLQPEDFATYYCQSNFYSDSTTIGPNAFGTGTKVTVLGGGGGSGGGGSGGGGSGGGGSEVQLVESGGGLVQPGGSLRLSCAASGFSFNSDYWIYWVRQAPGKGLEWIASIYGGSSGNTQYASWAQGRFTISRDNSKNTVYLQMNSLRAEDTAVYFCARGYVDYGGATDLWGQGTLVTVSS
notes: anti-PDL1 scFv; also called 37-20-B03-sc09.1
Kd [9]: 0.012 nM
koff [9]: 8.4e-05 s⁻¹
kon [9]: 7e+06 M⁻¹ s⁻¹
PDL1/PD-1 EC50 [nM], NFAT reporter gene assay [10]: 0.93 nM
PDL1/PD-1 Max. inhibition (rel. to avelumab) [%] [10]: 91.8%
Kd [11]: 0.015 nM
koff [11]: 9.3e-05 s⁻¹
kon [11]: 6.3e+06 M⁻¹ s⁻¹

B8: PRO4245 (scFv)
scFv: DIQMTQSPSSLSASVGDRVTITCQASQSIGTYLAWYQQKPGKPPKLLIYRGGILASGVPSRFSGSGSGTDFTLTISSLQPEDFATYYCQSNFYSDSTTIGPNAFGTGTKVTVLGGGGGSGGGGSGGGGSGGGGSQQLVESGGGLVQPGGSLRLSCAASGFSFNSDYWIYWVRQAPGKGLEWIASIYGGSSGNTQYASWAQGRFTISKDNSKNTVYLQMNSLRAEDSAVYFCARGYVDYGGATDLWGQGTLVKVSS
notes: anti-PDL1 scFv
Kd [9]: 0.032 nM
koff [9]: 0.00014 s⁻¹
kon [9]: 4.6e+06 M⁻¹ s⁻¹
PDL1/PD-1 EC50 [nM], NFAT reporter gene assay [10]: 1.81 nM
PDL1/PD-1 Max. inhibition (rel. to avelumab) [%] [10]: 106%
Kd [11]: 0.036 nM
koff [11]: 0.00014 s⁻¹
kon [11]: 4e+06 M⁻¹ s⁻¹
